Laboratory results: the Human Domainome abundance scans (Beltran et al. 2025)
± gives the uncertainty stated by the source.

B1: Gamma-crystallin C, residues 4 to 79; numbered along this chain, P07315 (parent)
chain: ITFYEDRAFQGRSYETTTDCPNLQPYFSRCNSIRVESGCWMLYERPNYQGQQYLLRRGEYPDYQQWMGLSDSIRSC
B2: WW domain-binding protein 4, residues 8 to 43; numbered along this chain, O75554 (parent)
chain: QPKKFCDYCKCWIADNRPSVEFHERGKNHKENVAKR

Variants of: B1
Experiment: abundance fitness (aPCA) (normalised: wild type 0, dead -1); higher = more abundant; growth selection in yeast, the domain comes from the species named
Conditions: Homo sapiens
G68P gave an abundance fitness of -0.02 ± 0.069. In the case of G68Q, the abundance fitness is reported as -0.018 ± 0.083. Variant G68R has an abundance fitness of 0.079 ± 0.043. G68S showed an abundance fitness of 0.014 ± 0.052. With G68T the abundance fitness was 0.068 ± 0.076. G68V gave an abundance fitness of 0.007 ± 0.065. Variant G68W has an abundance fitness of 0.003 ± 0.08. G68Y gave an abundance fitness of 0.097 ± 0.089. Work on L69C yielded an abundance fitness of 0.07 ± 0.12. Variant L69E has an abundance fitness of 0.017 ± 0.075. L69F showed an abundance fitness of 0.147 ± 0.12. Variant L69G has an abundance fitness of -0.028 ± 0.041. Variant L69H has an abundance fitness of -0.045 ± 0.099. L69I gave an abundance fitness of -0.23 ± 0.26. For L69K, the abundance fitness was -0.104 ± 0.091. With L69M the abundance fitness was -0.163 ± 0.1. With L69N the abundance fitness was -0.045 ± 0.18. With L69P the abundance fitness was -0.07 ± 0.12. Variant L69Q has an abundance fitness of 0.08 ± 0.12. L69R showed an abundance fitness of -0.021 ± 0.048. L69S showed an abundance fitness of -0.153 ± 0.076. Variant L69T has an abundance fitness of 0.047 ± 0.085. Work on L69V yielded an abundance fitness of 0.02 ± 0.058. Work on L69W yielded an abundance fitness of 0.098 ± 0.081. L69Y gave an abundance fitness of -0.001 ± 0.18. For S70A, the abundance fitness was 0.02 ± 0.05. In the case of S70C, the abundance fitness is reported as 0.101 ± 0.16. Work on S70D yielded an abundance fitness of -0.074 ± 0.12. S70F gave an abundance fitness of -0.053 ± 0.079. Variant S70G has an abundance fitness of -0.007 ± 0.055. S70H showed an abundance fitness of -0.181 ± 0.15. With S70I the abundance fitness was 0.09 ± 0.11. S70K gave an abundance fitness of -0.114 ± 0.17. Work on S70L yielded an abundance fitness of -0.047 ± 0.049. S70M gave an abundance fitness of -0.132 ± 0.097. S70N gave an abundance fitness of -0.021 ± 0.11. Work on S70P yielded an abundance fitness of 0.082 ± 0.084. With S70Q the abundance fitness was -0.077 ± 0.15. With S70R the abundance fitness was -0.064 ± 0.067. Variant S70T has an abundance fitness of -0.072 ± 0.075. With S70V the abundance fitness was 0.075 ± 0.048. S70W showed an abundance fitness of 0.048 ± 0.068. Work on S70Y yielded an abundance fitness of 0.047 ± 0.096. Variant D71C has an abundance fitness of -0.017 ± 0.11. In the case of D71E, the abundance fitness is reported as 0.027 ± 0.086. For D71F, the abundance fitness was -0.132 ± 0.16. D71H gave an abundance fitness of -0.092 ± 0.1. D71I showed an abundance fitness of -0.106 ± 0.1. Variant D71K has an abundance fitness of 0.094 ± 0.11. In the case of D71L, the abundance fitness is reported as 0.021 ± 0.068. Variant D71M has an abundance fitness of -0.133 ± 0.075. Variant D71N has an abundance fitness of -0.007 ± 0.12. D71P gave an abundance fitness of -0.135 ± 0.071. Variant D71Q has an abundance fitness of -0.121 ± 0.14. With D71R the abundance fitness was -0.011 ± 0.066. For D71S, the abundance fitness was -0.056 ± 0.055. Variant D71T has an abundance fitness of -0.059 ± 0.12. Work on D71V yielded an abundance fitness of -0.004 ± 0.059. In the case of D71W, the abundance fitness is reported as -0.02 ± 0.14. D71Y showed an abundance fitness of -0.027 ± 0.081. Variant S72A has an abundance fitness of -0.136 ± 0.081. S72C gave an abundance fitness of -0.082 ± 0.13. Variant S72D has an abundance fitness of -0.21 ± 0.3. Variant S72F has an abundance fitness of 0.119 ± 0.084. Variant S72G has an abundance fitness of 0.022 ± 0.054. S72H showed an abundance fitness of -0.172 ± 0.17. Variant S72I has an abundance fitness of 0.007 ± 0.17. S72K gave an abundance fitness of 0.058 ± 0.13. Work on S72L yielded an abundance fitness of -0.052 ± 0.072. S72M gave an abundance fitness of 0.019 ± 0.11. For S72P, the abundance fitness was -0.025 ± 0.14. S72R showed an abundance fitness of 0.01 ± 0.07. With S72T the abundance fitness was -0.145 ± 0.088. In the case of S72V, the abundance fitness is reported as -0.012 ± 0.077. Work on S72Y yielded an abundance fitness of 0.01 ± 0.11. I73A gave an abundance fitness of 0.055 ± 0.053. I73C showed an abundance fitness of 0.047 ± 0.091. Work on I73D yielded an abundance fitness of -0.861 ± 0.23. Work on I73E yielded an abundance fitness of -0.655 ± 0.2. With I73F the abundance fitness was -0.083 ± 0.12. With I73H the abundance fitness was -0.693 ± 0.29. Work on I73K yielded an abundance fitness of -0.801 ± 0.25. Variant I73L has an abundance fitness of 0.025 ± 0.077. I73M showed an abundance fitness of 0.106 ± 0.094. I73P gave an abundance fitness of 0.071 ± 0.081. Work on I73Q yielded an abundance fitness of -0.798 ± 0.26. In the case of I73R, the abundance fitness is reported as -0.854 ± 0.1. Variant I73S has an abundance fitness of -0.39 ± 0.084. Variant I73T has an abundance fitness of 0.053 ± 0.1. Variant I73V has an abundance fitness of 0.085 ± 0.089. For I73W, the abundance fitness was 0.124 ± 0.12. Work on I73Y yielded an abundance fitness of -0.207 ± 0.3. R74A gave an abundance fitness of 0.039 ± 0.05. In the case of R74C, the abundance fitness is reported as 0.037 ± 0.088. R74D gave an abundance fitness of 0.104 ± 0.15. R74E showed an abundance fitness of -0.021 ± 0.066. For R74G, the abundance fitness was 0.022 ± 0.044. Variant R74H has an abundance fitness of -0.001 ± 0.11. With R74I the abundance fitness was 0.02 ± 0.076. R74K gave an abundance fitness of -0.013 ± 0.12. R74L showed an abundance fitness of 0.023 ± 0.049. For R74M, the abundance fitness was 0.007 ± 0.082. R74N gave an abundance fitness of 0.107 ± 0.14. R74P gave an abundance fitness of -0.389 ± 0.099. With R74Q the abundance fitness was -0.001 ± 0.1. R74T showed an abundance fitness of 0.12 ± 0.082. For R74V, the abundance fitness was 0.108 ± 0.053. In the case of R74W, the abundance fitness is reported as 0.119 ± 0.059. In the case of R74Y, the abundance fitness is reported as 0.105 ± 0.14. In the case of S75A, the abundance fitness is reported as -0.054 ± 0.093. Variant S75C has an abundance fitness of 0.044 ± 0.12. In the case of S75D, the abundance fitness is reported as -0.836 ± 0.41. For S75E, the abundance fitness was -0.793 ± 0.27. S75F showed an abundance fitness of -0.979 ± 0.26. In the case of S75G, the abundance fitness is reported as -0.069 ± 0.062. S75H showed an abundance fitness of -0.88 ± 0.29. Work on S75I yielded an abundance fitness of -0.186 ± 0.15. S75K showed an abundance fitness of -0.59 ± 0.19. In the case of S75L, the abundance fitness is reported as 0.044 ± 0.068. S75M gave an abundance fitness of -0.675 ± 0.13. S75P showed an abundance fitness of -0.66 ± 0.12. S75Q gave an abundance fitness of -0.327 ± 0.21. Work on S75R yielded an abundance fitness of -0.479 ± 0.069. Variant S75T has an abundance fitness of -0.828 ± 0.17. Variant S75V has an abundance fitness of -0.226 ± 0.053. For S75W, the abundance fitness was -0.875 ± 0.24. Variant S75Y has an abundance fitness of -0.599 ± 0.25. In the case of C76A, the abundance fitness is reported as 0.056 ± 0.078. With C76D the abundance fitness was -0.834 ± 0.13. Variant C76E has an abundance fitness of -0.795 ± 0.32. In the case of C76F, the abundance fitness is reported as -0.539 ± 0.086. Work on C76G yielded an abundance fitness of 0.116 ± 0.065. Work on C76H yielded an abundance fitness of -0.574 ± 0.092. With C76I the abundance fitness was 0.074 ± 0.083. Variant C76M has an abundance fitness of -0.192 ± 0.14. With C76P the abundance fitness was -0.984 ± 0.18. Variant C76Q has an abundance fitness of -0.592 ± 0.15. With C76R the abundance fitness was -0.904 ± 0.25. With C76S the abundance fitness was 0.051 ± 0.063. Work on C76T yielded an abundance fitness of -0.002 ± 0.15. For C76V, the abundance fitness was 0.061 ± 0.073. With C76W the abundance fitness was -0.545 ± 0.22. For C76Y, the abundance fitness was -0.719 ± 0.13.

Variants of: B2
Experiment: as above
Conditions: Homo sapiens
C6M showed an abundance fitness of -0.654 ± 0.09. S19L showed an abundance fitness of -0.467 ± 0.062. For S19E, the abundance fitness was -0.245 ± 0.074. Work on V33E yielded an abundance fitness of 0.022 ± 0.12. With E21I the abundance fitness was -0.71 ± 0.36. For K35L, the abundance fitness was -0.212 ± 0.086. Variant K35R has an abundance fitness of 0.004 ± 0.076. Work on R17Q yielded an abundance fitness of -0.008 ± 0.12. With C6L the abundance fitness was -0.862 ± 0.098. In the case of N16E, the abundance fitness is reported as 0.027 ± 0.082. Work on E31N yielded an abundance fitness of -0.346 ± 0.23. For F22K, the abundance fitness was -0.129 ± 0.12. Work on S19N yielded an abundance fitness of -0.204 ± 0.11. P18G gave an abundance fitness of -0.179 ± 0.066. W12F showed an abundance fitness of -0.165 ± 0.24. Variant N28M has an abundance fitness of 0.326 ± 0.16. With V33M the abundance fitness was -0.074 ± 0.34. In the case of S19Q, the abundance fitness is reported as -0.218 ± 0.094. Q1Y gave an abundance fitness of -0.422 ± 0.41. For V20H, the abundance fitness was -0.031 ± 0.15. G26D showed an abundance fitness of 0.015 ± 0.13. In the case of A34G, the abundance fitness is reported as -0.036 ± 0.061. P18L gave an abundance fitness of -0.236 ± 0.071. Work on F22C yielded an abundance fitness of 0.089 ± 0.1.
